# Molecular target: HCV serine protease Cpro-2 (NS3 protein, p70) (C型肝炎ウイルス (株名 HCV-J))
# Assay: cell-based or functional assay
row,Binder,"IC50, HCVプロテアーゼ阻害活性 (組換え基質MBP-NS5A/5B-ADK) [µM]"
1,"NSNPYYGRTSYNLKFKG [CDR-H2 (17 amino acid peptide, CDR2 of the mAb 8D4 H chain)]",229
2,GYSFTDYVLIWVKQS [CDR-H1 (15 amino acid peptide containing CDR1 of the mAb 8D4 H chain)],20.8
3,TDYVLIW [CDR-H1-7 (7 amino acid peptide: the 5 residues of H chain CDR1 with one residue left at each end)],165

# Reference: JPH11127861A (dated 1999)
